Source: paper PMC7642358 (Nature Communications, 2020)

Biological target: SARS-CoV-2 spike receptor-binding domain (2019-nCoV RBD-SD1, residues 319–566) (SARS-CoV-2, UniProt P0DTC2)

Binder | binding result
40 (VHH) VHH: QVQLVESGGGLVQAGGSLRLSCAASGFPVQGTWMEWYRQAPGKEREWVAAITSVGYRTYYADSVKGRFTISRDNAKNTVYLQMNSLKPEDTAVYYCNVKDEGAIAKNYDYWGQGTQVTVS | binds
41 (VHH) VHH: QVQLVESGGGLVQAGGSLRLSCAASGFPVEHQHMHWYRQAPGKEREWVAAIVSTGHYTIYADSVKGRFTISRDNAKNTVYLQMNSLKPEDTAVYYCNVKDWGDTSQYYDYWGQGTQVTVS | binds
43 (VHH) VHH: QVQLVESGGGLVQAGGSLRLSCAASGFPVEWTHMHWYRQAPGKEREWVAAIASSGAYTVYADSVKGRFTISRDNAKNTVYLQMNSLKPEDTAVYYCNVKDWGSQDRYYDYWGQGTQVTVS | binds
44 (VHH) VHH: QVQLVESGGGLVQAGGSLRLSCAASGFPVERKHMLWYRQSPGKEREWVAAIVSYGNYTTYADSVKGRFTISRDNAKNTVYLQMNSLKPEDTAVYYCNVKDHGFNTVLYDYWGQGTQVTVS | binds
45 (VHH) VHH: QVQLVESGGGLVQAGGSLRLSCAASGFPVAGTWMEWYRQAPGKEREWVAAITSYGYRTYYADSVKGRFTISRDNAKNTVYLQMNSLKPEDTAVYYCNVKDEGKSSQVYDYWGQGTQVTVS | binds
46 (VHH) VHH: QVQLVESGGGLVQAGGSLRLSCAASGFPVNYTIMFWYRKAPGKEREWVAAIKSHGATTLYADSVKGRFTISRDNAKNTVYLQMNSLKPEDTAVYYCNVKDVGNDQKSYDYWGQGTQVTVS | binds
47 (VHH) VHH: QVQLVESGGGLVQAGGSLRLSCAASGFPVVWAHMHWYRQAPGKEREWVAAITSEGAHTIYADSVKGRFTISRDNAKNTVYLQMNSLKPEDTAVYYCNVKDWGTYSTYYDYWGQGTQVTVS | binds
48 (VHH) VHH: QVQLVESGGGLVQAGGSLRLSCAASGFPVAHWWMEWYRQAPGKEREWVAAIFSEGNWTHYADSVKGRFTISRDNAKNTVYLQMNSLKPEDTAVYYCNVKDTGATQFAYDYWGQGTQVTVS | binds
49 (VHH) VHH: QVQLVESGGGLVQAGGSLRLSCAASGFPVHYTHMHWYRQAPGKEREWVAAIASSGAYTVYADSVKGRFTISRDNAKNTVYLQMNSLKPEDTAVYYCNVKDWGTYNTYYDYWGQGTQVTVS | binds
50 (VHH) VHH: QVQLVESGGGLVQAGGSLRLSCAASGFPVQYEHMHWYRQAPGKEREWVAAIVSEGAYTHYADSVKGRFTISRDNAKNTVYLQMNSLKPEDTAVYYCNVKDWGWLAQYYDYWGQGTQVTVS | binds
51 (VHH) VHH: QVQLVESGGGLVQAGGSLRLSCAASGFPVKETWMHWYRQAPGKEREWVAAITSFGYKTYYADSVKGRFTISRDNAKNTVYLQMNSLKPEDTAVYYCNVKDAGDVTHQYDYWGQGTQVTVS | binds
52 (VHH) VHH: QVQLVESGGGLVQAGGSLRLSCAASGFPVNYNWMEWYRQAPGKEREWVAAITSWGYKTYYADSVKGRFTISRDNAKNTVYLQMNSLKPEDTAVYYCNVKDEGMWQHYYDYWGQGTQVTVS | binds
53 (VHH) VHH: QVQLVESGGGLVQAGGSLRLSCAASGFPVYATVMHWYRQAPGKEREWVAAIYSTGMWTLYADSVKGRFTISRDNAKNTVYLQMNSLKPEDTAVYYCNVKDEGYDYYYYDYWGQGTQVTVS | binds
